The text below walks through data of the supplement of paper PMC9112550, “Optimization of the antimicrobial peptide Bac7 by deep mutational scanning” (BMC Biology, 2022).

For this series, the system named is Escherichia coli TOP10. Kind of series: shrunken log2 fold change of peptide-encoding DNA abundance (4.5 h post-induction vs induction); higher = less antimicrobial activity (less host growth inhibition). To be noted: time post-induction: 4.5 h; library: site-saturation at positions 5, 18, 19, 20.
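Further: peptides expressed intracellularly from a pBAD plasmid library in pooled LB shake-flask culture, induced with 0.3% L-arabinose, DNA abundance read by NGS, three biological replicates, DESeq2 with apeglm shrinkage.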

With RRIRVRPPRLPRPRPRPQCQPRP, the “shrunken log2 fold change” value stood at 0.148.

As for RRIRERPPRLPRPRPRPHKFPRP, the “shrunken log2 fold change” value is -0.984. As for RRIRFRPPRLPRPRPRPVEDPRP, the “shrunken log2 fold change” value was -0.264.

Take RRIRGRPPRLPRPRPRPLILPRP: the “shrunken log2 fold change” value amounted to 0.203. Consider RRIRMRPPRLPRPRPRPIYTPRP, for which the “shrunken log2 fold change” value is -0.257.

Consider RRIRPRPPRLPRPRPRPGCRPRP, for which the “shrunken log2 fold change” value worked out at 0.289.

For the sequence RRIRARPPRLPRPRPRPYKFPRP, the “shrunken log2 fold change” value is -0.279. Under RRIRCRPPRLPRPRPRPRATPRP stands 0.509. For RRIRWRPPRLPRPRPRPQETPRP, the “shrunken log2 fold change” value is -0.00116. As for RRIRQRPPRLPRPRPRPMMVPRP, the figure is -0.0145. Consider RRIRWRPPRLPRPRPRPGYCPRP, for which the “shrunken log2 fold change” value was -0.407. For RRIRDRPPRLPRPRPRPRVEPRP, the “shrunken log2 fold change” value turned out to be 0.137. As to RRIRRRPPRLPRPRPRPMHSPRP, the “shrunken log2 fold change” value is 0.36. For RRIRFRPPRLPRPRPRPLGAPRP, the “shrunken log2 fold change” value was found to be 0.312.

RRIRCRPPRLPRPRPRPRFYPRP: the “shrunken log2 fold change” value is -0.234. With RRIRHRPPRLPRPRPRPCIPPRP, the “shrunken log2 fold change” value is -0.809. As for RRIRERPPRLPRPRPRPEFFPRP, the figure is -0.131. Turning to RRIRERPPRLPRPRPRPYPIPRP, the “shrunken log2 fold change” value stood at 0.113.

With RRIRERPPRLPRPRPRPRMLPRP, the “shrunken log2 fold change” value was -0.0942.

With RRIRLRPPRLPRPRPRPNVDPRP, the “shrunken log2 fold change” value was -0.492. Under RRIRIRPPRLPRPRPRPDHNPRP stands -0.919.

With RRIRQRPPRLPRPRPRPCIAPRP, the “shrunken log2 fold change” value is -0.0382. For RRIRCRPPRLPRPRPRPYLLPRP, the “shrunken log2 fold change” value is -0.559. As for RRIRMRPPRLPRPRPRPKLAPRP, the figure is 2.87; as for RRIRERPPRLPRPRPRPWMWPRP, 0.0673; as for RRIRLRPPRLPRPRPRPAFLPRP, 0.134. As for RRIRFRPPRLPRPRPRPNFMPRP, the figure is -0.0155.

For the sequence RRIRDRPPRLPRPRPRPKNHPRP, the “shrunken log2 fold change” value is -0.195. As for RRIRYRPPRLPRPRPRPNKAPRP, the figure is -0.0417; as for RRIRQRPPRLPRPRPRPKEDPRP, -0.0372; as for RRIRMRPPRLPRPRPRPPHQPRP, 0.634. As to RRIRKRPPRLPRPRPRPLFPPRP, the “shrunken log2 fold change” value amounted to 0.161. In the case of RRIRMRPPRLPRPRPRPYAVPRP, the “shrunken log2 fold change” value is -0.0789. Turning to RRIRHRPPRLPRPRPRPDCYPRP, the “shrunken log2 fold change” value was -0.0716.

In the case of RRIRQRPPRLPRPRPRPYHTPRP, the “shrunken log2 fold change” value is -0.00448. In the case of RRIRNRPPRLPRPRPRPRAFPRP, the “shrunken log2 fold change” value is 0.0795. RRIRERPPRLPRPRPRPAVSPRP: the “shrunken log2 fold change” value stood at 0.0433. On to RRIRIRPPRLPRPRPRPVLEPRP, for which the “shrunken log2 fold change” value amounted to 0.0298.

On to RRIRKRPPRLPRPRPRPGYIPRP, for which the “shrunken log2 fold change” value was determined as 0.0313. Consider RRIRNRPPRLPRPRPRPHNVPRP, for which the “shrunken log2 fold change” value is -0.0343. As for RRIRFRPPRLPRPRPRPLMKPRP, the figure is -1.06.

For the sequence RRIRFRPPRLPRPRPRPENQPRP, the “shrunken log2 fold change” value was -0.00277. Under RRIRQRPPRLPRPRPRPSDTPRP stands -0.0683; under RRIRPRPPRLPRPRPRPAFFPRP, 0.186. Under RRIRLRPPRLPRPRPRPVHRPRP stands 0.119; under RRIRYRPPRLPRPRPRPGNVPRP, 0.0571; under RRIRRRPPRLPRPRPRPNIAPRP, -0.109. Under RRIRMRPPRLPRPRPRPRMHPRP stands 0.118; under RRIRIRPPRLPRPRPRPHAKPRP, -0.348.

Consider RRIRARPPRLPRPRPRPIEPPRP, for which the “shrunken log2 fold change” value worked out at 0.0525. For the sequence RRIRWRPPRLPRPRPRPYSMPRP, the “shrunken log2 fold change” value was -0.314. Under RRIRPRPPRLPRPRPRPPKEPRP stands 0.506; under RRIRIRPPRLPRPRPRPKNCPRP, -0.164. Regarding RRIRWRPPRLPRPRPRPDRAPRP, the “shrunken log2 fold change” value came out at 0.487.

RRIRIRPPRLPRPRPRPRMPPRP: the “shrunken log2 fold change” value was -0.0534. As for RRIRERPPRLPRPRPRPPKDPRP, the “shrunken log2 fold change” value worked out at 0.00712.

As for RRIRMRPPRLPRPRPRPTILPRP, the “shrunken log2 fold change” value is -0.0108.

Regarding RRIRQRPPRLPRPRPRPFNVPRP, the “shrunken log2 fold change” value is -0.375.

RRIRERPPRLPRPRPRPAKKPRP: the “shrunken log2 fold change” value was found to be 0.00764. Turning to RRIRNRPPRLPRPRPRPSSRPRP, the “shrunken log2 fold change” value is -0.164. As for RRIRKRPPRLPRPRPRPAYRPRP, the figure is 0.0954; as for RRIRDRPPRLPRPRPRPYLAPRP, -0.0552. Under RRIRMRPPRLPRPRPRPSGWPRP stands 0.934.

As to RRIRVRPPRLPRPRPRPLHRPRP, the “shrunken log2 fold change” value was -0.0175.

Regarding RRIRPRPPRLPRPRPRPIMQPRP, the “shrunken log2 fold change” value was -0.391. Regarding RRIRGRPPRLPRPRPRPLLHPRP, the “shrunken log2 fold change” value was determined as 0.762. With RRIRVRPPRLPRPRPRPSHEPRP, the “shrunken log2 fold change” value was -0.225. Under RRIRPRPPRLPRPRPRPVIYPRP stands -0.063; under RRIRMRPPRLPRPRPRPQHGPRP, 0.0121; under RRIRGRPPRLPRPRPRPTKCPRP, 0.684.

For the sequence RRIRKRPPRLPRPRPRPTFAPRP, the “shrunken log2 fold change” value is 0.673.

Turning to RRIRYRPPRLPRPRPRPGWAPRP, the “shrunken log2 fold change” value is 0.0172. For RRIRARPPRLPRPRPRPLHYPRP, the “shrunken log2 fold change” value is -0.174. RRIRCRPPRLPRPRPRPYLEPRP: the “shrunken log2 fold change” value is -0.208. Under RRIRYRPPRLPRPRPRPWNNPRP stands -0.656; under RRIRLRPPRLPRPRPRPILFPRP, -0.0559; under RRIRPRPPRLPRPRPRPQVRPRP, -0.13. As for RRIRARPPRLPRPRPRPRVAPRP, the figure is 0.46; as for RRIRYRPPRLPRPRPRPGSSPRP, -0.853. Under RRIRQRPPRLPRPRPRPYMFPRP stands -0.392; under RRIRARPPRLPRPRPRPAPYPRP, -0.0625; under RRIRNRPPRLPRPRPRPQQRPRP, -0.0535. As for RRIRQRPPRLPRPRPRPVLRPRP, the “shrunken log2 fold change” value is -0.027.

Consider RRIRWRPPRLPRPRPRPKYVPRP, for which the “shrunken log2 fold change” value is -0.0314. Under RRIRHRPPRLPRPRPRPLRPPRP stands 0.639; under RRIRIRPPRLPRPRPRPDTYPRP, -0.347; under RRIRQRPPRLPRPRPRPRNFPRP, -0.0725. RRIRERPPRLPRPRPRPDDGPRP: the “shrunken log2 fold change” value was -0.269. For RRIRYRPPRLPRPRPRPHGWPRP, the “shrunken log2 fold change” value was -0.0273.

In the case of RRIRCRPPRLPRPRPRPWKKPRP, the “shrunken log2 fold change” value was -0.0238. Under RRIRTRPPRLPRPRPRPKQMPRP stands 0.0252.

On to RRIRERPPRLPRPRPRPAQPPRP, for which the “shrunken log2 fold change” value was determined as 0.0203.

On to RRIRSRPPRLPRPRPRPFKSPRP, for which the “shrunken log2 fold change” value stood at 0.0547. As for RRIRVRPPRLPRPRPRPGRPPRP, the “shrunken log2 fold change” value came to 0.63. Under RRIRLRPPRLPRPRPRPIMYPRP stands -0.16; under RRIRVRPPRLPRPRPRPIWTPRP, -0.0382; under RRIRQRPPRLPRPRPRPYVCPRP, -0.0671. As for RRIRDRPPRLPRPRPRPLKCPRP, the figure is 0.055; as for RRIRLRPPRLPRPRPRPLKVPRP, -0.0503. For the sequence RRIRRRPPRLPRPRPRPCVTPRP, the “shrunken log2 fold change” value was -0.0627.

Take RRIRSRPPRLPRPRPRPATQPRP: the “shrunken log2 fold change” value was found to be 0.168. Under RRIRYRPPRLPRPRPRPFYSPRP stands -1.23. In the case of RRIRGRPPRLPRPRPRPDMIPRP, the “shrunken log2 fold change” value was determined as 0.531. As for RRIRFRPPRLPRPRPRPIIWPRP, the figure is -0.273. As for RRIRSRPPRLPRPRPRPAIYPRP, the figure is -1.04; as for RRIRFRPPRLPRPRPRPTPMPRP, 0.178.

As for RRIRKRPPRLPRPRPRPSFAPRP, the “shrunken log2 fold change” value came to 0.337. As for RRIRERPPRLPRPRPRPRVVPRP, the figure is 0.069; as for RRIRHRPPRLPRPRPRPVLKPRP, -0.295. In the case of RRIRSRPPRLPRPRPRPGQWPRP, the “shrunken log2 fold change” value is -0.0109. Under RRIRQRPPRLPRPRPRPWGKPRP stands -0.103; under RRIRTRPPRLPRPRPRPSQDPRP, -0.355; under RRIRERPPRLPRPRPRPLFRPRP, 1.09. For the sequence RRIRLRPPRLPRPRPRPDVYPRP, the “shrunken log2 fold change” value is -0.0227.

On to RRIRDRPPRLPRPRPRPVYHPRP, for which the “shrunken log2 fold change” value is -0.0857. Under RRIRHRPPRLPRPRPRPCKVPRP stands -0.0825. Take RRIRSRPPRLPRPRPRPFWQPRP: the “shrunken log2 fold change” value came to 0.909.

In the case of RRIRNRPPRLPRPRPRPLYSPRP, the “shrunken log2 fold change” value is -0.761.

On to RRIRCRPPRLPRPRPRPESDPRP, for which the “shrunken log2 fold change” value was found to be 0.242.

For RRIRRRPPRLPRPRPRPEHKPRP, the “shrunken log2 fold change” value came out at 0.193.

Take RRIRMRPPRLPRPRPRPDRFPRP: the “shrunken log2 fold change” value was 0.207. Under RRIRMRPPRLPRPRPRPIGEPRP stands 0.0433; under RRIRSRPPRLPRPRPRPGKNPRP, -0.166. Under RRIRCRPPRLPRPRPRPIPLPRP stands 0.148. As for RRIRQRPPRLPRPRPRPIKRPRP, the figure is -0.354.
